The target of this experiment is NSTTR, artificially mutated variant of TTR carrying the double mutation N99R/S100R. As to the kind of experiment: SEC-MALS. On the technique in general: Size exclusion chromatography separates by hydrodynamic size, large species first.

What is called stoichiometry N is a count of units in the complex or per binding partner. As for “NSTTR, artificially mutated variant of TTR carrying the double mutation N99R/S100R (natural protein)”, the stoichiometry N was 4.

For the origin of these results see doi:10.1101/852715.
